Among the data in patent US20230093399A1, “METHODS FOR GENERATING PLURIPOTENT STEM CELL-DERIVED BROWN FAT CELLS” (AgeX Therapeutics, Inc., priority 2013, published 2023) are MYH11 expression values, retold here.

The assay deals with cell line E15 and the line W10. The assay can be described thus: Cell lines E15 and W10 in micromass versus HyStem-C culture with BMP4, gene expression. It is filed as cell-based, human. The settings on record: micromass conditions supplemented with 10 ng/mL BMP4. As to the method:
In addition, the incubation of hEP cell lines in HyStem-C (BioTime, Inc. Alameda, Calif.) allowed the accumulation of a large amount of data on the biological influence of HyStem-C (BioTime, Inc. Alameda, Calif.) on diverse cell types. […] This physiological effect on myofibroblastic differentiation seen in many lines cultured in HyStem-C (BioTime, Inc. Alameda, Calif.) beads (i.e., the strong reduction in MYH11 expression) has therapeutic implications in vivo, such as in inhibiting fibrosis or adhesions. It also is of benefit in surgical settings where cells could be transplanted to regenerate tissue function while inhibiting adhesions and related fibrotic process at the surgical site.
The present invention utilizes micromass differentiations to generate high-density cultures, thereby predisposing hEP cells to differentiation in the presence of exogenous factors. Differentiation by micromass culture was performed according to the manufacturer's (BioTime) instructions (Chondrogenesis Differentiation Kit ES-K42). Briefly, cells were cultured in the undifferentiated state, trypsinized (0.25% w/v trypsin/EDTA (Invitrogen)), diluted 1:3 with PBS (Ca and Mg free), and resuspended at a cell density of 2.0×10^7 cells/ml in their respective growth media. […]

B1: BMP4: Bone Morphogenetic Protein 4, TGF-beta superfamily member (protein, UniProt P12644 293-408, looked up)
Bone morphogenetic protein 4: SPKHHSQRARKKNKNCRRHSLYVDFSDVGWNDWIVAPPGYQAFYCHGDCPFPLADHLNSTNHAIVQTLVNSVNSSIPKACCVPTELSAISMLYLDEYDKVVLKNYQEMVVEGCGCR
With B1, the MYH11 expression entry is “strongly induced”.
